Experiment [1] has as its target T1, GAPDH (human, UniProt P04406 2-335).
T1 construct: Cellular protein control of the pull-down; also called control cytoplasmic marker protein GAPDH; control protein GAPDH
As to the kind of experiment: pull-down from human Jurkat T cell lysate, immunoblot. The procedure: (§1) Cell-penetrating peptide cSN50.1 (2986 Da) and other peptides listed in Table 1 were synthesized and prepared as previously described (Liu, D., et al., (2009) Mol Ther 17, 796-802). Biotinylated NTM peptides and their constituent modules were prepared in the same manner, with biotin added to the amino terminus at the last step of synthesis. When necessary, a 5-7 hydrophilic amino acid tag was added to peptide modules to facilitate solubility. For i.p. administration, 200 μl aliquots containing 0.4 or 0.7 mg of cSN50.1 in saline was injected at 8 h or 12 h intervals. Alternatively, 10 mg cSN50.1 in 100 μl sterile H₂O was administered subcutaneously from ALZET Osmotic Pumps (1007D) placed aseptically in interscapular areas. A bolus of 0.7 mg cSN50.1 in 100 μl saline was administered i.p. at weekly pump changes to assure steady NTM bioavailability. Dosage schedules were developed based on previous experimental protocols and half-life studies. Control mice received sterile saline in the same volumes as NTM. Importins pull-down assay. Ten nmols of biotinylated NTM peptides or their constituent modules depicted in Table 1 (SN50, cSN50.1, N50, cN50.1, SSHR-1, SSHR-2) were incubated overnight at 4° C. with 1.5 mg of whole cell extract from unstimulated human Jurkat T cells or serum-starved human HepG2 cells lysed in binding buffer (10 mM HEPES at pH 7.9, 150 mM NaCl, 10 mM KCl, 2.5 mM MgCl₂, 1 mM EGTA, 1 mM DTT, 0.1% NP-40, 1% protease inhibitor cocktail). Lysate was cleared by centrifugation (16,000×g for 30 min at 4° C.) and transferred to a fresh tube containing high capacity Neutravidin beads (Thermo Scientific). After 4 h, beads were separated from lysate/peptide mixture by centrifugation (30 s at 1,000×g) and washed 3 times with binding buffer and 2 times with PBS. Beads were boiled for 10 min in SDS loading buffer, and protein content was analyzed by immunoblotting with a panel of anti-importins alpha and beta antibodies and anti-GAPDH (Abcam) as a cellular protein control.
In general terms: In western blotting, separated proteins are transferred to a membrane and probed.

Experiment [2] deals with T2, importin alpha 5 (human, UniProt P52294 1-538).
T2 construct: also called importins alpha; importins/karyopherins alpha
T2 sequence (P52294 whole entry): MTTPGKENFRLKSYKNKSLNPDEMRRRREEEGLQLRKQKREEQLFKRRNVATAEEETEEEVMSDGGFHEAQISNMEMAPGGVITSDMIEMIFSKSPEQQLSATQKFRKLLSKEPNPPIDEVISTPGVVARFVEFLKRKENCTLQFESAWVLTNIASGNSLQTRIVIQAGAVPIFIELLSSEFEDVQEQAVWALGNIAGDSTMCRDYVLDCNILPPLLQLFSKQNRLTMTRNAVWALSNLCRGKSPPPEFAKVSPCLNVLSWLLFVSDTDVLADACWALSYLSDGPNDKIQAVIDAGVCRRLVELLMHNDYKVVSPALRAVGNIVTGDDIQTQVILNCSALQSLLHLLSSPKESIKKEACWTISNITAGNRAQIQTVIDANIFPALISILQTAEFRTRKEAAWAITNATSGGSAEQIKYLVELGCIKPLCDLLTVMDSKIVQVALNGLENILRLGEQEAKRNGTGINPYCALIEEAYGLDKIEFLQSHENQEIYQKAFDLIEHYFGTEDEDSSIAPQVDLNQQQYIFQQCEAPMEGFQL
Kind of experiment: pull-down from cell lysate, immunoblot.

For experiment [3], the target named is importin alpha 1 (human, UniProt P52292 2-529). Kind of experiment: pull-down from cell lysate, immunoblot.
Experiment [4] concerns the target T3, importin beta (human, UniProt Q14974 1-876).
T3 construct: also called imp beta; nuclear transport shuttle for SREBPs
Kind of experiment: pull-down from human Jurkat T cell lysate, immunoblot. The procedure:
as §1

Positions of bridges follow the written chain, without caps; N, C: chain ends. No end group written: not given here. *: point of attachment. Biotin = O=C1N[C@H]2[C@H](CS[C@H]2CCCCC(=O)*)N1

T3 sequence (Q14974 whole entry): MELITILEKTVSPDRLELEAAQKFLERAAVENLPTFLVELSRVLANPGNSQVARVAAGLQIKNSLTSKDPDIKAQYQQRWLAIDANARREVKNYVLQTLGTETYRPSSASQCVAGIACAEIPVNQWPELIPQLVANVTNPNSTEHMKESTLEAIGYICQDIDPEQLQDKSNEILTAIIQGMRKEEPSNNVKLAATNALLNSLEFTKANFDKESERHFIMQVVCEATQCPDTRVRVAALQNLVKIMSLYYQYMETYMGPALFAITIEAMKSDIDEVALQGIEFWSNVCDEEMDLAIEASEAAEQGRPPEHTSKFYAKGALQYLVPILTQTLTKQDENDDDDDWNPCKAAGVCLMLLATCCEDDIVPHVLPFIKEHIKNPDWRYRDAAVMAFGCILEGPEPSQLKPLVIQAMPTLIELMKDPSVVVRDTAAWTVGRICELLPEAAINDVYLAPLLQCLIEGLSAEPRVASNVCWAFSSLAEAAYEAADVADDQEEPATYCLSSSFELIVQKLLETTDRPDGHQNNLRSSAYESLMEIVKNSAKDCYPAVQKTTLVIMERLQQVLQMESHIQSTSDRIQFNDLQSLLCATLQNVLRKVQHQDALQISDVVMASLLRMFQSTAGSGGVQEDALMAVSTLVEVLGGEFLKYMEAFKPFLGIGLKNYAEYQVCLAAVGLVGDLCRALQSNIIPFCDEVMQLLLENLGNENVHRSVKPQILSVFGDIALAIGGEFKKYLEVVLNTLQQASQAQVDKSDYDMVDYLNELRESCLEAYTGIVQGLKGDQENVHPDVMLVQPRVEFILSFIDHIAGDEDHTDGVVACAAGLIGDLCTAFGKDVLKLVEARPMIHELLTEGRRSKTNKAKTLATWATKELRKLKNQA
T1 sequence (P04406 2-335 limits assumed): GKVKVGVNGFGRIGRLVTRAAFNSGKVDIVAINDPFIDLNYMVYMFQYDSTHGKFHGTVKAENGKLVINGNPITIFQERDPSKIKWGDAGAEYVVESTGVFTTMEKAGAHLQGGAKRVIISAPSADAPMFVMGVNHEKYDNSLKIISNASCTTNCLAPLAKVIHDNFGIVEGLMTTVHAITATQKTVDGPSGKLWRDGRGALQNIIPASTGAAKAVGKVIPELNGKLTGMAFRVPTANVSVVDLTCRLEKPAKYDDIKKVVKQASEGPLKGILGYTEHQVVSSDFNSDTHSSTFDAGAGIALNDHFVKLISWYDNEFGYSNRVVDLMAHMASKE

B1: biotinylated cSN50.1 peptide (peptide)
peptide: Biotin-AAVALLPAVLLALLAPCVQRKRQKLMPC
modifications: disulfide 17-28 (inferred)
notes: the N-biotinylated version was used in the pull-down assays; also called NTM; full-length biotinylated NTM
Regarding B1, the binding result in experiment [1] is “no binding”.

B2: biotinylated cSN50.1 Beta peptide (peptide)
peptide: Biotin-AAVALLPAVLLALLAPCVQRDEQKLMPC
modifications: disulfide 17-28 (inferred)
notes: cSN50.1 with lysine 21 replaced by aspartic acid and arginine 22 replaced by glutamic acid
For the molecule B2, the binding result in experiment [2] and in experiment [3] was “no binding” throughout.

B3: biotinylated SN50 peptide (peptide)
peptide: Biotin-AAVALLPAVLLALLAPVQRKRQKLMP
notes: also called NTM; full-length biotinylated NTM
As for B3, the binding result in experiment [1] is “no binding”.

Take Biotin-CVQRKRQKLMPC (disulfide 1-12 (inferred), NLS segment of cSN50.1, no SSHR) [biotinylated cN50.1 peptide]: in experiment [4], the binding result is reported as “no binding”.

Consider Biotin-VQRKRQKLMP (NLS segment of SN50, no SSHR) [biotinylated N50 peptide], for which, in experiment [4], the binding result was “no binding”.

The values above are taken from US20140336113A1 (VANDERBILT UNIVERSITY, published 2014).
